From patent publication US20250129150A1 (APOGEE THERAPEUTICS, published 2025)
Changes are numbered by the printed parent chain.

How the values were obtained:
[1] = molecular target: T1, Recombinant Cynomolgus IL-13 Protein, His Tag (SINO BIOLOGICAL, Cat. 11057-C07H) (cynomolgus monkey, UniProt Q5I6E4 19-132 (Macaca thibetana entry)); experiment: SPR (Biacore 8K), mAb captured on Protein G chip, IL-13 as analyte
T1 construct: also called Cyno IL-13; cynomolgus monkey IL-13
T1 chain: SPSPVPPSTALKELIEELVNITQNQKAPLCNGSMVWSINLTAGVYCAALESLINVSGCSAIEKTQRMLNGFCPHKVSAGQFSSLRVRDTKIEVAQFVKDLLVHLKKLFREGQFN
Method: (§1) Samples were injected in a multi-cycle manner over freshly captured mAb, by regenerating the capture surfaces with injection of glycine pH 1.5 for 30 sec at a flow rate of 30 μL/min. The data was processed and analyzed with Biacore Insight Evaluation Software Version 2.0.15.12933 (GE Healthcare) as follows. […] The responses from the two buffer blank injections were then subtracted from the reference subtracted data (2-1) to yield double-referenced data, which were fit to an 1:1 binding model to determine the apparent association (ka) and dissociation rate constants (kd). Their ratio provided the apparent equilibrium dissociation constant or affinity constant (KD=kd/ka).

[2] = molecular target: T2, Recombinant Human IL-13 Protein, His Tag (Acro Cat. IL3-H52H4) (human, UniProt P35225 35-146); experiment: as above
T2 construct: Bought protein; also called Hu IL-13; not shown: His Tag
T2 sequence (P35225 other isoform, or with tags, fused parts or gaps limits assumed): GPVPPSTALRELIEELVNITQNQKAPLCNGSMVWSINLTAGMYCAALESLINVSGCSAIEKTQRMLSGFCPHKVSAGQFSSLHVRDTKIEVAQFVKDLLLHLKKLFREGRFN
Method: as §1

[3] = molecular target: T3, hIL-13 (human, UniProt P35225 35-146, limits assumed); experiment: cell-based or functional assay
T3 sequence (P35225 other isoform, or with tags, fused parts or gaps limits assumed): as above

[4] = molecular target: T3, hIL-13; experiment: cell-based or functional assay; remark: listed apart in the source
[5] = molecular target: T3, hIL-13; experiment: cell-based or functional assay; remark: listed apart in the source
[6] = molecular target: biotinylated hIL-13 (human, UniProt P35225 35-146, limits assumed, biotinylated (site not stated)); experiment: FACS; blockade of biotinylated hIL-13 (0.05 ug/mL) binding to HEK293 cells expressing hIL-13Rα1/hIL-4Rα
Chain of biotinylated hIL-13 (P35225 other isoform, or with tags, fused parts or gaps limits assumed): as above
Method: Briefly, HEK293 previously transduced to stably express both hIL-13Rα and hIL-4Rα were cultured and harvested. Cells were seeded at 200,000 cells in 100 uL per well. Cells were washed and the supernatant was discarded. […] The cells were stained in this mixture at 4° C. for 1 hour. […] Cells were incubated at 4° C. for 1 hour, protected from light. Cells were then washed and the median fluorescence intensity (MFI) of cells in each well were recorded by FACS using a BD FACSCanto II. Subsequent data were analyzed using GraphPad Prism.

[7] = molecular target: T3, hIL-13; experiment: ELISA

B1: Tralokinumab (antibody, V domains shown)
VH: QVQLVQSGAEVKKPGASVKVSCKASGYTFTNYGLSWVRQAPGQGLEWMGWISANNGDTNYGQEFQGRVTMTTDTSTSTAYMELRSLRSDDTAVYYCARDSSSSWARWFFDLWGRGTLVTVSS
VL: SYVLTQPPSVSVAPGKTARITCGGNIIGSKLVHWYQQKPGQAPVLVIYDDGDRPSGIPERFSGSNSGNTATLTISRVEAGDEADYYCQVWDTGSDPVVFGGGTKLTVL
Kd [1]: 1.48 nM
Kd [2]: 0.116 nM
pSTAT6 Inhibition IC50 (HT-29 cells) [3]: 0.41 nM
TARC Inhibition IC50 (A549 cells) [4]: 4.14 nM
TF-1 Proliferation Inhibition IC50 [5]: 0.59 nM

B2: Construct 144 (antibody, human IgG1, kappa, L234A L235A)
heavy: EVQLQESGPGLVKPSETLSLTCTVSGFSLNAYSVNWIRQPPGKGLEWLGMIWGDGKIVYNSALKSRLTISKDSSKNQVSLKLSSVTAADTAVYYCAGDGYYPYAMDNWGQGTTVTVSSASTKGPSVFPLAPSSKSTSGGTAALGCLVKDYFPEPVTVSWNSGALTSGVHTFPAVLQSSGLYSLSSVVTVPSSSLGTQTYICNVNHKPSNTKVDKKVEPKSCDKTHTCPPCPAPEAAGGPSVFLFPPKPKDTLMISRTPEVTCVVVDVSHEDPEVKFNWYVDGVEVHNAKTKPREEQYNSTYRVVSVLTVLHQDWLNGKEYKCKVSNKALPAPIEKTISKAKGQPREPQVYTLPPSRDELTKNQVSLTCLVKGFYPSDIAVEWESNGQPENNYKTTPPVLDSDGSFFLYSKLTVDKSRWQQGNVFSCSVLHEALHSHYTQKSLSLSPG
light: DIQLTQSPSSLSASVGDRVTITCRASKSVDSYGNSFMHWYQQKPGKAPKLLIYLASELESGVPSRFSGSGSGTDFTLTISSLQPEDFATYYCQQNNEDPRTFGGGTKVEIKRTVAAPSVFIFPPSDEQLKSGTASVVCLLNNFYPREAKVQWKVDNALQSGNSQESVTEQDSKDSTYSLSSTLTLSKADYEKHKVYACEVTHQGLSSPVTKSFNRGEC
notes: also called HC1; LC6_m8
IC50 [6]: 0.94 nM
Kd [7]: 0.014 nM
Kd [1]: 0.228 nM
Kd [2]: 0.0263 nM
pSTAT6 Inhibition IC50 (HT-29 cells) [3]: 0.3 nM
TARC Inhibition IC50 (A549 cells) [4]: 0.91 nM
TF-1 Proliferation Inhibition IC50 [5]: 0.17 nM

B3: Construct 138 (antibody, human IgG4, kappa)
heavy: EVQLLESGGGLVQPGGSLRLSCAASGFSLNAYSVNWVRQAPGKGLEWLGMIWGDGKIVYNSALKSRLTISKDSSKNTVYLQMNSLRAEDTAVYYCAGDGYYPYAMDNWGQGTTVTVSSASTKGPSVFPLAPCSRSTSESTAALGCLVKDYFPEPVTVSWNSGALTSGVHTFPAVLQSSGLYSLSSVVTVPSSSLGTKTYTCNVDHKPSNTKVDKRVESKYGPPCPSCPAPEFLGGPSVFLFPPKPKDTLYITREPEVTCVVVDVSQEDPEVQFNWYVDGVEVHNAKTKPREEQFNSTYRVVSVLTVLHQDWLNGKEYKCKVSNKGLPSSIEKTISKAKGQPREPQVYTLPPSQEEMTKNQVSLTCLVKGFYPSDIAVEWESNGQPENNYKTTPPVLDSDGSFFLYSRLTVDKSRWQEGNVFSCSVMHEALHNHYTQKSLSLSLGK
light: B2 light
notes: also called HC5; LC6_m8
IC50 [6]: 1.01 nM
Kd [1]: 0.348 nM
Kd [2]: 0.108 nM
pSTAT6 Inhibition IC50 (HT-29 cells) [3]: 0.19 nM
TARC Inhibition IC50 (A549 cells) [4]: 0.97 nM
TF-1 Proliferation Inhibition IC50 [5]: 0.23 nM

B4: Construct 143 (antibody, human IgG4, kappa)
heavy: EVQLQESGPGLVKPSETLSLTCTVSGFSLNAYSVNWIRQPPGKGLEWLGMIWGDGKIVYNSALKSRLTISKDSSKNQVSLKLSSVTAADTAVYYCAGDGYYPYAMDNWGQGTTVTVSSASTKGPSVFPLAPCSRSTSESTAALGCLVKDYFPEPVTVSWNSGALTSGVHTFPAVLQSSGLYSLSSVVTVPSSSLGTKTYTCNVDHKPSNTKVDKRVESKYGPPCPSCPAPEFLGGPSVFLFPPKPKDTLMISRTPEVTCVVVDVSQEDPEVQFNWYVDGVEVHNAKTKPREEQFNSTYRVVSVLTVLHQDWLNGKEYKCKVSNKGLPSSIEKTISKAKGQPREPQVYTLPPSQEEMTKNQVSLTCLVKGFYPSDIAVEWESNGQPENNYKTTPPVLDSDGSFFLYSRLTVDKSRWQEGNVFSCSVLHEALHSYTQKSLSLSLGK
light: B2 light
notes: also called HC1; LC6_m8
IC50 [6]: 0.74 nM
Kd [1]: 0.685 nM
Kd [2]: 0.119 nM
pSTAT6 Inhibition IC50 (HT-29 cells) [3]: 0.36 nM
TARC Inhibition IC50 (A549 cells) [4]: 0.92 nM
TF-1 Proliferation Inhibition IC50 [5]: 0.17 nM

B5: Construct 139 (antibody, human IgG4, kappa)
heavy: EVQLLESGGGLVQPGGSLRLSCAASGFSLNAYSVNWVRQAPGKGLEWLGMIWGDGKIVYNSALKSRLTISKDSSKNTVYLQMNSLRAEDTAVYYCAGDGYYPYAMDNWGQGTTVTVSSASTKGPSVFPLAPCSRSTSESTAALGCLVKDYFPEPVTVSWNSGALTSGVHTFPAVLQSSGLYSLSSVVTVPSSSLGTKTYTCNVDHKPSNTKVDKRVESKYGPPCPSCPAPEFLGGPSVFLFPPKPKDTLMISRTPEVTCVVVDVSQEDPEVQFNWYVDGVEVHNAKTKPREEQFNSTYRVVSVLTVLHQDWLNGKEYKCKVSNKGLPSSIEKTISKAKGQPREPQVYTLPPSQEEMTKNQVSLTCLVKGFYPSDIAVEWESNGQPENNYKTTPPVLDSDGSFFLYSRLTVDKSRWQEGNVFSCSVLHEALHSYTQKSLSLSLGK
light: B2 light
notes: also called HC5; LC6_m8
IC50 [6]: 1.09 nM
Kd [1]: 0.705 nM
Kd [2]: 0.114 nM
pSTAT6 Inhibition IC50 (HT-29 cells) [3]: 0.28 nM
TARC Inhibition IC50 (A549 cells) [4]: 1.02 nM
TF-1 Proliferation Inhibition IC50 [5]: 0.2 nM

B6: Construct 140 (antibody, human IgG1, kappa, L234A L235A)
heavy: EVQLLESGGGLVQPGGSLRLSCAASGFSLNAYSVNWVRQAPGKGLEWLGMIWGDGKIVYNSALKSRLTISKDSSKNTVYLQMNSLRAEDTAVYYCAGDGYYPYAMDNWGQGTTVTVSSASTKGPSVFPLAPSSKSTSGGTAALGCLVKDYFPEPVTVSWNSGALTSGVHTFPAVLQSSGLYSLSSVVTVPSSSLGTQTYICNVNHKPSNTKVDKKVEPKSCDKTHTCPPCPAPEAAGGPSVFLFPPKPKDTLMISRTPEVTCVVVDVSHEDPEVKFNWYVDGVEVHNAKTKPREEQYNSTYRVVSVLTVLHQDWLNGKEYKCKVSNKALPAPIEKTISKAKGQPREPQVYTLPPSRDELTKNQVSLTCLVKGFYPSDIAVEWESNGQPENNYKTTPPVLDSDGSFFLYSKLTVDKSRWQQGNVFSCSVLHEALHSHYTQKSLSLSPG
light: B2 light
notes: also called HC5; LC6_m8
Kd [7]: 0.02 nM
Kd [1]: 0.252 nM
Kd [2]: 0.0475 nM
pSTAT6 Inhibition IC50 (HT-29 cells) [3]: 0.33 nM
TARC Inhibition IC50 (A549 cells) [4]: 0.94 nM
TF-1 Proliferation Inhibition IC50 [5]: 0.14 nM

B7: Construct 142 (antibody, human IgG4, kappa)
heavy: EVQLQESGPGLVKPSETLSLTCTVSGFSLNAYSVNWIRQPPGKGLEWLGMIWGDGKIVYNSALKSRLTISKDSSKNQVSLKLSSVTAADTAVYYCAGDGYYPYAMDNWGQGTTVTVSSASTKGPSVFPLAPCSRSTSESTAALGCLVKDYFPEPVTVSWNSGALTSGVHTFPAVLQSSGLYSLSSVVTVPSSSLGTKTYTCNVDHKPSNTKVDKRVESKYGPPCPSCPAPEFLGGPSVFLFPPKPKDTLYITREPEVTCVVVDVSQEDPEVQFNWYVDGVEVHNAKTKPREEQFNSTYRVVSVLTVLHQDWLNGKEYKCKVSNKGLPSSIEKTISKAKGQPREPQVYTLPPSQEEMTKNQVSLTCLVKGFYPSDIAVEWESNGQPENNYKTTPPVLDSDGSFFLYSRLTVDKSRWQEGNVFSCSVMHEALHNHYTQKSLSLSLGK
light: B2 light
notes: also called HC1; LC6_m8
IC50 [6]: 0.77 nM
Kd [7]: 0.054 nM
Kd [1]: 0.326 nM
Kd [2]: 0.108 nM
pSTAT6 Inhibition IC50 (HT-29 cells) [3]: 0.29 nM
TARC Inhibition IC50 (A549 cells) [4]: 0.92 nM
TF-1 Proliferation Inhibition IC50 [5]: 0.2 nM

B8: Construct 132 (antibody, human IgG1, kappa, L234A L235A)
heavy: EVQLLESGGGLVQPGGSLRLSCAASGFSLNAYSVNWVRQAPGKGLEWLGMIWGDGKIVYNSALKSRLTISKDSSKNTVYLQMNSLRAEDTAVYYCAGDGYYPYAMDNWGQGTTVTVSSASTKGPSVFPLAPSSKSTSGGTAALGCLVKDYFPEPVTVSWNSGALTSGVHTFPAVLQSSGLYSLSSVVTVPSSSLGTQTYICNVNHKPSNTKVDKKVEPKSCDKTHTCPPCPAPEAAGGPSVFLFPPKPKDTLYITREPEVTCVVVDVSHEDPEVKFNWYVDGVEVHNAKTKPREEQYNSTYRVVSVLTVLHQDWLNGKEYKCKVSNKALPAPIEKTISKAKGQPREPQVYTLPPSRDELTKNQVSLTCLVKGFYPSDIAVEWESNGQPENNYKTTPPVLDSDGSFFLYSKLTVDKSRWQQGNVFSCSVMHEALHNHYTQKSLSLSPG
light: B2 light with E57N
notes: also called HC5; LC6
IC50 [6]: 0.99 nM
Kd [1]: 0.331 nM
Kd [2]: 0.135 nM
pSTAT6 Inhibition IC50 (HT-29 cells) [3]: 0.37 nM
TARC Inhibition IC50 (A549 cells) [4]: 0.87 nM
TF-1 Proliferation Inhibition IC50 [5]: 0.13 nM

B9: Construct 128 (antibody, human IgG4, kappa)
heavy: QVTLRESGPALVKPTQTLTLTCTVSGFSLSAYSVNWIRQPPGKALEWLAMIWGDGKIVYNSALKSRLTISKDTSKNQVVLTMTNMDPVDTATYYCAGDGYYPYAMDNWGQGSLVTVSSASTKGPSVFPLAPCSRSTSESTAALGCLVKDYFPEPVTVSWNSGALTSGVHTFPAVLQSSGLYSLSSVVTVPSSSLGTKTYTCNVDHKPSNTKVDKRVESKYGPPCPSCPAPEFLGGPSVFLFPPKPKDTLYITREPEVTCVVVDVSQEDPEVQFNWYVDGVEVHNAKTKPREEQFNSTYRVVSVLTVLHQDWLNGKEYKCKVSNKGLPSSIEKTISKAKGQPREPQVYTLPPSQEEMTKNQVSLTCLVKGFYPSDIAVEWESNGQPENNYKTTPPVLDSDGSFFLYSRLTVDKSRWQEGNVFSCSVMHEALHNHYTQKSLSLSLGK
light: DIVMTQSPDSLSVSLGERATINCRASKSVDSYGNSFMHWYQQKPGQPPKLLIYLASNLESGVPDRFSGSGSGTDFTLTISSLQAEDVAVYYCQQNNEDPRTFGGGTKVEIKRTVAAPSVFIFPPSDEQLKSGTASVVCLLNNFYPREAKVQWKVDNALQSGNSQESVTEQDSKDSTYSLSSTLTLSKADYEKHKVYACEVTHQGLSSPVTKSFNRGEC
notes: also called Lebrikizumab-HC; Lebrikizumab-LC
IC50 [6]: 0.95 nM
Kd [7]: 0.067 nM
Kd [1]: 0.298 nM
Kd [2]: 0.0915 nM
pSTAT6 Inhibition IC50 (HT-29 cells) [3]: 0.28 nM
TARC Inhibition IC50 (A549 cells) [4]: 1.01 nM
TF-1 Proliferation Inhibition IC50 [5]: 0.2 nM
